B1: Wee1 (enzyme)
chain: MSSSSNTSSHRSYGLRRSQRSMNLNRATLLAPPTPSSLYDANNSTSSTSSQKPNTSFTSLFGPRKQTTSSPSFSHAAPLHPLSPPSFTHSQPQIQAQPVPRRPSLFDRPNLVSRSSSRLGDSPSLSPVAQVANPIHHTAPSPSDVRAFPIHKNASTGVKRSFFSSSMSNGAMSPPSHSPSPFLQSSQHIPPSTPAQKLRKKNNFDSFRISNSHISPFASGSFSPFATSSPNFLSTSTPAPPNSNNANPSTLFSSIPSSRHTTSNHFPSNSAQSSLFSPTARPLTARKLGFASSQTKSAVSNNHSRNSSKDASFMMKSFIPSNRSHPQTQQNESSLFSDNSMVNSSSNSFSLFPNATLPNPPSSELLTTPFQQIKPPSQVFMSTGLLSKQHRPRKNINFTPLPPSTPSKPSTFVRPHSSSTDSPPSPSTPSNTQTDSYFIQRENTPTNHNSIPTIQLEKSSMDFLRFDPPPSAVKTSHNYGLPFLSNQRCPATPTRNPFAFENTVSIHMDGRQPSPIKSRNNNQMSFAMEEEADVSQPSSSSFTLSFPSALTSSKVSSSTSHLLTRFRNVTLLGSGEFSEVFQVEDPVEKTLKYAVKKLKVKFSGPKERNRLLQEVSIQRALKGHDHIVELMDSWEHGGFLYMQVELCENGSLDRFLEEQGQLSRLDEFRVWKILVEVALGLQFIHHKNYVHLDLKPANVMITFEGTLKIGDFGMASVWPVPRGMEREGDCEYIAPEVLANHLYDKPADIFSLGITVFEAAANIVLPDNGQSWQKLRSGDLSDAPRLSSTDNGSSLTSSSRETPANSIIGQGGLDRVVEWMLSPEPRNRPTIDQILATDEVCWVEMRRKAGAIIYEGIHGSSSNPQGDQMMEDWQVNV
B2: Cdc25 (enzyme)
chain: MDSPLSSLSFTNTLSGKRNVLRPAARELKLMSDRNANQELDFFFPKSKHIASTLVDPFGKTCSTASPASSLAADMSMNMHIDESPALPTPRRTLFRSLSCTVETPLANKTIVSPLPESPSNDALTESYFFRQPASKYSITQDSPRVSSTIAYSFKPKASIALNTTKSEATRSSLSSSSFDSYLRPNVSRSRSSGNAPPFLRSRSSSSYSINKKKGTSGGQATRHLTYALSRTCSQSSNTTSLLESCLTDDTDDFELMSDHEDTFTMGKVADLPESSVELVEDAASIQRPNSDFGACNDNSLDDLFQASPIKPIDMLPKINKDIAFPSLKVRSPSPMAFAMQEDAEYDEQDTPVLRRTQSMFLNSTRLGLFKSQDLVCVTPKQSTKESERFISSHVEDLSLPCFAVKEDSLKRITQETLLGLLDGKFKDIFDKCIIIDCRFEYEYLGGHISTAVNLNTKQAIVDAFLSKPLTHRVALVFHCEHSAHRAPHLALHFRNTDRRMNSHRYPFLYYPEVYILHGGYKSFYENHKNRCDPINYVPMNDASHVMTCTKAMNNFKRNATFMRTKSYTFGQSVLASPDVNDSPTAMHSLSTLRRF

Biological target: Cdc2-GFP (S. pombe, UniProt P04551 1-297)
Test: affinity purification with mass spectrometry

Sequence of Cdc2-GFP (P04551 whole entry): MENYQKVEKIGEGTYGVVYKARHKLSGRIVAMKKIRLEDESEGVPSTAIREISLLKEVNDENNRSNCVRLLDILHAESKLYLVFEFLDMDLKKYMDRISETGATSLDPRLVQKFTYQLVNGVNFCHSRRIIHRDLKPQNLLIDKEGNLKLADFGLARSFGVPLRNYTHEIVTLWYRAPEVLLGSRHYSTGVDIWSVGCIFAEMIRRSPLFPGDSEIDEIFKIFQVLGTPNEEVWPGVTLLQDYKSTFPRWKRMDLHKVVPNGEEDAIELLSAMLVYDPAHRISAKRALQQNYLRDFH

Row | Binder | fold increase in association with Cdc2, suc1^ts versus suc1+ cells [fold]
1 | B1 | 2.5
2 | B2 | 3
